The values that follow come from patent US20180170984.

The data set concerns the target APOBEC3A wild-type (Homo sapiens) (UniProt P31941). To be noted: 5-nitroindole at positions 12-14; deamination activity.

Sequence of APOBEC3A wild-type (Homo sapiens) (P31941 whole entry): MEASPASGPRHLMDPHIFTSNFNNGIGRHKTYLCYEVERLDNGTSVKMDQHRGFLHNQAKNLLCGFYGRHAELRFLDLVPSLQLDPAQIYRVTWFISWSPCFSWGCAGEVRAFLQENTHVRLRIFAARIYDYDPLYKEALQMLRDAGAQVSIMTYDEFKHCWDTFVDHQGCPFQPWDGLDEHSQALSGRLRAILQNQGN

For “AAAAAAAAATCNNNAAAAAAA [+1 to +3 5-nitroindole substrate]”, the binding signal (fold lower than n3) is 2.
